B1: M-Q96HR9 (protein, UniProt Q96HR9 1-211, looked up)
Receptor expression-enhancing …: MDGLRQRVEHFLEQRNLVTEVLGALEAKTGVEKRYLAAGAVTLLSLYLLFGYGASLLCNLIGFVYPAYASIKAIESPSKDDDTVWLTYWVVYALFGLAEFFSDLLLSWFPFYYVGKCAFLLFCMAPRPWNGALMLYQRVVRPLFLRHHGAVDRIMNDLSGRALDAAAGITRNVLQVLARSRAGITPVAVAGPSTPLEADLKPSQTPQPKDK
B2: M-Q96ER3 (protein, UniProt Q96ER3 1-474, looked up)
Protein SAAL1: MDRNPSPPPPGRDKEEEEEVAGGDCIGSTVYSKHWLFGVLSGLIQIVSPENTKSSSDDEEQLTELDEEMENEICRVWDMSMDEDVALFLQEFNAPDIFMGVLAKSKCPRLREICVGILGNMACFQEICVSISSDKNLGQVLLHCLYDSDPPTLLETSRLLLTCLSQAEVASVWVERIQEHPAIYDSICFIMSSSTNVDLLVKVGEVVDKLFDLDEKLMLEWVRNGAAQPLDQPQEESEEQPVFRLVPCILEAAKQVRSENPEWLDVYMHILQLLTTVDDGIQAIVHCPDTGKDIWNLLFDLVCHEFCQSDDPPIILQEQKTVLASVFSVLSAIYASQTEQEYLKIEKVDLPLIDSLIRVLQNMEQCQKKPENSAESNTEETKRTDLTQDDFHLKILKDILCEFLSNIFQALTKETVAQGVKEGQLSKQKCSSAFQNLLPFYSPVVEDFIKILREVDKALADDLEKNFPSLKVQT
modifications: host interactor of M

System: SARS-CoV-1, MERS-CoV and SARS-CoV-2 proteins in HEK293T cells
Set-up: species or system human

| Molecule | MIST_MERS | MIST_SARS1 | MIST_SARS2 | Saint_MERS | Saint_SARS1 | Saint_SARS2 |
| --- | --- | --- | --- | --- | --- | --- |
| B1 | 0 | 0 | 0.9557 | 0 | 0 | 0.65 |
| B2 | 0 | 0.3763 | 0.7695 | 0 | 0.98 | 1 |
